Starred links: 1 amine or outer side, 2 acyl side, 3 side chain; linkers in the order of their positions; H or OH if unused. Positions of bridges follow the written chain, without caps; N, C: chain ends. *: point of attachment. cholesteryl‑succinyl = CC(C)CCC[C@@H](C)[C@H]1CC[C@H]2[C@@H]3CC=C4C[C@@H](OC(=O)CCC(=O)*)CC[C@]4(C)[C@H]3CC[C@]12C; pXylylene = c1cc(C[*:2])ccc1C[*:1]; Suc = O=C(CCC(=O)[*:2])[*:1]
B1: peptide 68 (peptide)
peptide: Ac-ACYAACIEALIRAAQEQQEKNEAALR-NH2
modifications: linker 2-6 via pXylylene
SMILES: CC[C@H](C)[C@H](NC(=O)[C@H](CC(C)C)NC(=O)[C@H](C)NC(=O)[C@H](CCC(=O)O)NC(=O)[C@@H](NC(=O)[C@@H]1CSCc2ccc(cc2)CSC[C@H](NC(=O)[C@H](C)NC(C)=O)C(=O)N[C@@H](Cc2ccc(O)cc2)C(=O)N[C@@H](C)C(=O)N[C@@H](C)C(=O)N1)[C@@H](C)CC)C(=O)N[C@@H](CCCNC(=N)N)C(=O)N[C@@H](C)C(=O)N[C@@H](C)C(=O)N[C@@H](CCC(N)=O)C(=O)N[C@@H](CCC(=O)O)C(=O)N[C@@H](CCC(N)=O)C(=O)N[C@@H](CCC(N)=O)C(=O)N[C@@H](CCC(=O)O)C(=O)N[C@@H](CCCCN)C(=O)N[C@@H](CC(N)=O)C(=O)N[C@@H](CCC(=O)O)C(=O)N[C@@H](C)C(=O)N[C@@H](C)C(=O)N[C@@H](CC(C)C)C(=O)N[C@@H](CCCNC(=N)N)C(N)=O
B2: peptide 69 (peptide)
peptide: Ac-ANYLALIEALIRAAQEQQEKNEAALRGSGK(cholesteryl‑succinyl)-NH2
SMILES: CC[C@H](C)[C@H](NC(=O)[C@H](CC(C)C)NC(=O)[C@H](C)NC(=O)[C@H](CCC(=O)O)NC(=O)[C@@H](NC(=O)[C@H](CC(C)C)NC(=O)[C@H](C)NC(=O)[C@H](CC(C)C)NC(=O)[C@H](Cc1ccc(O)cc1)NC(=O)[C@H](CC(N)=O)NC(=O)[C@H](C)NC(C)=O)[C@@H](C)CC)C(=O)N[C@@H](CCCNC(=N)N)C(=O)N[C@@H](C)C(=O)N[C@@H](C)C(=O)N[C@@H](CCC(N)=O)C(=O)N[C@@H](CCC(=O)O)C(=O)N[C@@H](CCC(N)=O)C(=O)N[C@@H](CCC(N)=O)C(=O)N[C@@H](CCC(=O)O)C(=O)N[C@@H](CCCCN)C(=O)N[C@@H](CC(N)=O)C(=O)N[C@@H](CCC(=O)O)C(=O)N[C@@H](C)C(=O)N[C@@H](C)C(=O)N[C@@H](CC(C)C)C(=O)N[C@@H](CCCNC(=N)N)C(=O)NCC(=O)N[C@@H](CO)C(=O)NCC(=O)N[C@@H](CCCCNC(=O)CCC(=O)O[C@H]1CC[C@@]2(C)C(=CC[C@H]3[C@@H]4CC[C@H]([C@H](C)CCCC(C)C)[C@@]4(C)CC[C@@H]32)C1)C(N)=O
B3: peptide 72 (peptide)
peptide: Ac-ACYAACIEELIRKAQEQQEKNEAALR-NH2
modifications: linker 2-6 via pXylylene
SMILES: CC[C@H](C)[C@H](NC(=O)[C@@H]1CSCc2ccc(cc2)CSC[C@H](NC(=O)[C@H](C)NC(C)=O)C(=O)N[C@@H](Cc2ccc(O)cc2)C(=O)N[C@@H](C)C(=O)N[C@@H](C)C(=O)N1)C(=O)N[C@@H](CCC(=O)O)C(=O)N[C@@H](CCC(=O)O)C(=O)N[C@@H](CC(C)C)C(=O)N[C@H](C(=O)N[C@@H](CCCNC(=N)N)C(=O)N[C@@H](CCCCN)C(=O)N[C@@H](C)C(=O)N[C@@H](CCC(N)=O)C(=O)N[C@@H](CCC(=O)O)C(=O)N[C@@H](CCC(N)=O)C(=O)N[C@@H](CCC(N)=O)C(=O)N[C@@H](CCC(=O)O)C(=O)N[C@@H](CCCCN)C(=O)N[C@@H](CC(N)=O)C(=O)N[C@@H](CCC(=O)O)C(=O)N[C@@H](C)C(=O)N[C@@H](C)C(=O)N[C@@H](CC(C)C)C(=O)N[C@@H](CCCNC(=N)N)C(N)=O)[C@@H](C)CC
B4: peptide 67 (peptide)
peptide: Suc-ACYAACIEALIRAAQEQQEKNEAALR-NH2
modifications: linker 2-6 via pXylylene
SMILES: CC[C@H](C)[C@H](NC(=O)[C@H](CC(C)C)NC(=O)[C@H](C)NC(=O)[C@H](CCC(=O)O)NC(=O)[C@@H](NC(=O)[C@@H]1CSCc2ccc(cc2)CSC[C@H](NC(=O)[C@H](C)NC(=O)CCC(=O)O)C(=O)N[C@@H](Cc2ccc(O)cc2)C(=O)N[C@@H](C)C(=O)N[C@@H](C)C(=O)N1)[C@@H](C)CC)C(=O)N[C@@H](CCCNC(=N)N)C(=O)N[C@@H](C)C(=O)N[C@@H](C)C(=O)N[C@@H](CCC(N)=O)C(=O)N[C@@H](CCC(=O)O)C(=O)N[C@@H](CCC(N)=O)C(=O)N[C@@H](CCC(N)=O)C(=O)N[C@@H](CCC(=O)O)C(=O)N[C@@H](CCCCN)C(=O)N[C@@H](CC(N)=O)C(=O)N[C@@H](CCC(=O)O)C(=O)N[C@@H](C)C(=O)N[C@@H](C)C(=O)N[C@@H](CC(C)C)C(=O)N[C@@H](CCCNC(=N)N)C(N)=O
B5: peptide 3 (peptide)
peptide: Suc-ANYAALIEALIRAAQEQQEKNEAALR-NH2
SMILES: CC[C@H](C)[C@H](NC(=O)[C@H](CC(C)C)NC(=O)[C@H](C)NC(=O)[C@H](CCC(=O)O)NC(=O)[C@@H](NC(=O)[C@H](CC(C)C)NC(=O)[C@H](C)NC(=O)[C@H](C)NC(=O)[C@H](Cc1ccc(O)cc1)NC(=O)[C@H](CC(N)=O)NC(=O)[C@H](C)NC(=O)CCC(=O)O)[C@@H](C)CC)C(=O)N[C@@H](CCCNC(=N)N)C(=O)N[C@@H](C)C(=O)N[C@@H](C)C(=O)N[C@@H](CCC(N)=O)C(=O)N[C@@H](CCC(=O)O)C(=O)N[C@@H](CCC(N)=O)C(=O)N[C@@H](CCC(N)=O)C(=O)N[C@@H](CCC(=O)O)C(=O)N[C@@H](CCCCN)C(=O)N[C@@H](CC(N)=O)C(=O)N[C@@H](CCC(=O)O)C(=O)N[C@@H](C)C(=O)N[C@@H](C)C(=O)N[C@@H](CC(C)C)C(=O)N[C@@H](CCCNC(=N)N)C(N)=O
B6: peptide 71 (peptide)
peptide: Ac-ACYAACIEALIRKAQEQQEKNEAALR-NH2
modifications: linker 2-6 via pXylylene
SMILES: CC[C@H](C)[C@H](NC(=O)[C@@H]1CSCc2ccc(cc2)CSC[C@H](NC(=O)[C@H](C)NC(C)=O)C(=O)N[C@@H](Cc2ccc(O)cc2)C(=O)N[C@@H](C)C(=O)N[C@@H](C)C(=O)N1)C(=O)N[C@@H](CCC(=O)O)C(=O)N[C@@H](C)C(=O)N[C@@H](CC(C)C)C(=O)N[C@H](C(=O)N[C@@H](CCCNC(=N)N)C(=O)N[C@@H](CCCCN)C(=O)N[C@@H](C)C(=O)N[C@@H](CCC(N)=O)C(=O)N[C@@H](CCC(=O)O)C(=O)N[C@@H](CCC(N)=O)C(=O)N[C@@H](CCC(N)=O)C(=O)N[C@@H](CCC(=O)O)C(=O)N[C@@H](CCCCN)C(=O)N[C@@H](CC(N)=O)C(=O)N[C@@H](CCC(=O)O)C(=O)N[C@@H](C)C(=O)N[C@@H](C)C(=O)N[C@@H](CC(C)C)C(=O)N[C@@H](CCCNC(=N)N)C(N)=O)[C@@H](C)CC
B7: peptide 70 (peptide)
peptide: Ac-ACYAACIDALIRAAQEQQEKNEAALR-NH2
modifications: linker 2-6 via pXylylene
SMILES: CC[C@H](C)[C@H](NC(=O)[C@H](CC(C)C)NC(=O)[C@H](C)NC(=O)[C@H](CC(=O)O)NC(=O)[C@@H](NC(=O)[C@@H]1CSCc2ccc(cc2)CSC[C@H](NC(=O)[C@H](C)NC(C)=O)C(=O)N[C@@H](Cc2ccc(O)cc2)C(=O)N[C@@H](C)C(=O)N[C@@H](C)C(=O)N1)[C@@H](C)CC)C(=O)N[C@@H](CCCNC(=N)N)C(=O)N[C@@H](C)C(=O)N[C@@H](C)C(=O)N[C@@H](CCC(N)=O)C(=O)N[C@@H](CCC(=O)O)C(=O)N[C@@H](CCC(N)=O)C(=O)N[C@@H](CCC(N)=O)C(=O)N[C@@H](CCC(=O)O)C(=O)N[C@@H](CCCCN)C(=O)N[C@@H](CC(N)=O)C(=O)N[C@@H](CCC(=O)O)C(=O)N[C@@H](C)C(=O)N[C@@H](C)C(=O)N[C@@H](CC(C)C)C(=O)N[C@@H](CCCNC(=N)N)C(N)=O

Biological target: gp41 of HIV-1 strain HXB2D with mutation V38A (HIV-1 strain HXB2D, UniProt P04578)
Test: cell-based or functional assay

| Binder | fold change in EC50, HIV-HXB2D V38A mutant |
| --- | --- |
| B1 | 21 fold |
| B2 | 1 fold |
| B3 | 10 fold |
| B4 | 30 fold |
| B5 | 74 fold |
| B6 | 11 fold |
| B7 | 11 fold |
